According to publication PMC4105619, “Identification and Characterisation of Aedes aegypti Aldehyde Dehydrogenases Involved in Pyrethroid Metabolism” (PLoS ONE, 2014):

Experiments:
[1] = substrate: O=Cc1cccc(Oc2ccccc2)c1; test: purified protein; assay type: biochemical, Aedes aegypti; conditions: saturating NAD+, 33 mM phosphate pH 8.2, 1 mM EDTA, 0.1 mM pyrazole, 37°C
[2] = substrate: NC(=O)c1ccc[n+]([C@@H]2O[C@H](COP(=O)(O)OP(=O)(O)OC[C@H]3O[C@@H](n4cnc5c(N)ncnc54)[C@H](O)[C@@H]3O)[C@@H](O)[C@H]2O)c1; test: purified protein; assay type: biochemical, Aedes aegypti; conditions: saturating PBald, 33 mM phosphate pH 8.2, 1 mM EDTA, 0.1 mM pyrazole, 37°C, varied: cofactor

Row | Protein | Km [1] [µM] | Km [2] [µM]
1 | ALDH9948 (Aedes aegypti) (protein, full length, N-terminal His6 fusion from pET100-D/TOPO, E. coli BL21 Star (DE3), HisTrap Ni purified, about 65 kDa on SDS-PAGE; cDNA from PMD-R strain) MANANPEIKYTQLFINNEFVDAVSGKVFPTVNPSTGKKIVDIAEGDKADVDLAVQAAKAAFQRSSKWRQMDASARGKLIYKLADLMERDMHQIASLESLDNGKPYMSAVYDVYGSMNCLRYYAGWTDKVCGETVPSDGPHLTYTRKEPFGVVGQIIPWNYPLLMLAWKWGPALAAGCTIVMKPAEQTPLTALYMCSLVKEAGFPPGVVNMVPGYGPTAGNAITMHPDIRKVAFTGSVEVGKIVMAGAASNLKKVSLELGGKSPLVICDDVDVNEAAQIAYTGVFENMGQCCIAATRTFVQEGIYDAFVQKATELAKGRKVGNPFSQGIQHGPQIDDIQFKKILGFIETGKKEGAKLETGGVQVGEEGYFIEPTVFSNVTDEMTIAKEEIFGPVQSIIKFKTLDEAIERANATSFGLAAGIVTKNLNNALTFSNAVEAGSVWVNTYLAVSNQAPFGGYKQSGVGREMGKEGIEEYLETKTVSIKLPSKV | 0.1538 ± 0.0308 | 0.1391 ± 0.0279
2 | ALDH14080 (Aedes aegypti) (protein, full length, N-terminal His6 fusion from pET100-D/TOPO, E. coli BL21 Star (DE3), HisTrap Ni purified, about 65 kDa on SDS-PAGE; cDNA from PMD-R strain) MANPNQEIKYTKLFINNQFVDSQSGKTFPTLNPATGQKIVDVAEGDKADVDIAVQAAKTAFARSSAWRQMDASARGKLLHKLADLMERDINVLANLESLDNGKAFGDSVFDMNCAIDTFRYYAGWADKIHGSTVPSDGPVMTYIRKEPVGVVGQIIPWNYPVLMLTWKWAPALATGCTLVLKPAEQTPLSALYMAALSKEAGFPDGVINVVNGYGPTVGAAIVNHAEIRKVAFTGSVETGRLITEGSSKSNLKRVSLELGGKSPLVVFDDFDVDEAVEIAHNAIFANHGQNCCAGSRTFVQEGVYDKFVAKAAEMAKARKVGDAFAEGTQQGPQVDEEQLNKILGFFESASKEGAKLQTGGKRHGNVGYFVEPTVYSDVTDEMRIAREEIFGPVQSILKFKTLDEVIERANRTEYGLAAGVLTNNLNNALVFSNAVEAGSVWVNCYDYVMPTTPFGGFKQSGHGRELGYDGIELYTETKTVTIKLPSKV |  | 0.1938 ± 0.0345
